Experimental data taken from US9890400B2, “Method of production of 2,4-dihydroxybutyric acid” (ADISSEO FRANCE S.A.S., priority 2012, dated 2018).

Test system: CC(C)(COP(=O)(O)OP(=O)(O)OC[C@H]1O[C@@H](n2cnc3c(N)ncnc32)[C@H](O)[C@@H]1OP(=O)(O)O)[C@@H](O)C(=O)NCCC(=O)NCCSC(=O)CCC(=O)O
Assay: Malyl-CoA reductase activity, reductive sense (Assay 1)
Type: biochemical, Porphyromonas gingivalis W83
Conditions: other: reductive sense, succinyl-CoA added directly, NADPH, pH 7.5, 37° C.
Description: NCBI references of the utilized mcr and sucD protein sequences, and the references for the corresponding natural and synthetic DNA sequences are listed in Table 2.
Expression and purification of Pg-SucD was carried out as described in Example 1 using plasmid pET28-Pgi-sucD.
Malyl-CoA reductase activity was assayed in the reductive and in the oxidative sense of the reaction employing Assay 1 or Assay 2, respectively.
Assay 1 (Reaction Scheme): glyoxylate+acetyl-CoA→malyl-CoA+acetate Malyl-CoA lyase: (L)-Malyl-CoA+NADPH→(L)-Malate semialdehyde+Coenzyme A+NADP Malyl-CoA reductase: Assay 2 (Reaction Scheme): (L)-Malate semialdehyde+Coenzyme A+NADP→(L)-Malyl-CoA+NADPH The reaction mixture according to Assay 1 contained 50 mM MOPS/KOH (pH 7.5), […], and appropriate amounts of purified malyl-CoA reductase or cell extract. Reactions were started by adding glyoxylate. Enzymatic assays were carried out at 37° C. in 96-well flat bottomed microtiter plates in a final volume of 250 μL. The reactions were followed by the characteristic absorption of NADPH at 340 nm (εNADPH=6.22 mM^−1 cm^−1) in a microplate reader (BioRad 680XR).

**Q.** For “Porphyromonas gingivalis succinyl-CoA reductase (Pg-SucD), wild type, SEQ ID No. 10 (Porphyromonas gingivalis W83)”, which Km is on record?
**A.** Its Km is 1000 µM.

**Q.** And the Vmax?
**A.** Its Vmax is 1 µmol/min/mg.
